Test results published in patent US20240092867A1 (UNIVERSITY OF CHICAGO, published 2024).

Key:
laminin-111 = molecular target: T1, laminin-111 (human, UniProt P25391 18-3075; P07942 22-1786; P11047 34-1609); test: ELISA, GF coated, laminin 10 nM
T1 construct: Full-length recombinant human laminin isoform (BioLamina); Chain composition is read from the isoform name
Method: (§1) ELISA tests were performed as previously reported. In brief, ELISA plates (med-binding, Greiner Bio-One) were coated with 50 nM GFs at 37° C. for more than 2 hrs. […] Bound laminin was detected with rabbit anti-human laminin γ1 chain antibody (1:1000 dilution, Assay biotech) or rabbit anti-human laminin α3 chain antibody (1:1000 dilution, Assay biotech). After incubation with biotinylated anti-rabbit antibody for 60 min at room temperature (RT), HRP conjugated streptavidin (Jackson ImmunoResearch) was added. After 60 min of incubation at RT, 50 μL TMB substrate (Sigma-Aldrich) was added. The reactions were stopped by adding 25 μL of 2 N H₂SO₄. Subsequently, the absorbance at 450 nm was measured with a reference of 570 nm.

laminin-211 = molecular target: T2, laminin-211 (human, UniProt P24043 23-3122; P07942 22-1786; P11047 34-1609); test: ELISA, GF coated, laminin 10 nM
T2 construct: Full-length recombinant human laminin isoform (BioLamina); chains read from the isoform name
Method: as §1

laminin-411 = molecular target: T3, laminin-411 (human, UniProt Q16363 25-1823; P07942 22-1786; P11047 34-1609); test: ELISA, GF coated, laminin 10 nM
T3 construct: Full-length recombinant human laminin isoform (BioLamina); chains read from the isoform name
Method: as §1

laminin-421 = molecular target: T4, laminin-421 (human, UniProt Q16363 25-1823; P55268 33-1798; P11047 34-1609); test: ELISA, GF coated, laminin 10 nM
T4 construct: Full-length recombinant human laminin isoform (BioLamina); chains read from the isoform name
Method: as §1

laminin-511 = molecular target: T5, laminin-511 (human, UniProt O15230 36-3695; P07942 22-1786; P11047 34-1609); test: ELISA, GF coated, laminin 10 nM
T5 construct: Full-length recombinant human laminin isoform (BioLamina); chains read from the isoform name
Method: as §1

laminin-521 = molecular target: T6, laminin-521 (human, UniProt O15230 36-3695; P55268 33-1798; P11047 34-1609); test: ELISA, GF coated, laminin 10 nM
T6 construct: Full-length recombinant human laminin isoform (BioLamina); chains read from the isoform name
Method: as §1

human plasma-derived vWF = molecular target: T7, human plasma-derived vWF (human, UniProt P04275 764-2813); test: ELISA, GF coated 50 nM, vWF 1 µg/mL
T7 construct: mature; also called plasma-derived purified vWF; von Willebrand factor
Method: ELISA tests were performed as previously reported1. In brief, ELISA plates (med-binding, Greiner Bio-One) were coated with 50 nM GFs at 37° C. for 2 hrs. […] Then, HRP conjugated goat anti-rabbit antibody (Jackson ImmunoResearch) was added. After 60 min of incubation, 50 μL TMB substrate (Sigma-Aldrich) was added. The reaction was stopped by adding 25 μL of 2N H2SO4. Subsequently, the absorbance at 450 nm was measured and subtracted the absorbance at 570 nm.

[1] = molecular target: T8, fibroblast growth factor (FGF)-2 (human, UniProt P09038 143-288); test: ELISA; peptide coated at 10 µg/mL, 1 µg/mL FGF-2 in solution, bound GF detected with antibody [panel FGF-2]
T8 construct: mature; Purchased in mature form
Method: (§2) FIG. 9. […] Affinity of GFs against chemically synthesized peptides that are scrambled (Scr) the sequence of α3₃₀₄₃₋₃₀₆₂. ELISA plates were coated with 10 μg/mL laminin peptide and further incubated with VEGF-A165, PlGF-2, PDGF-BB, or FGF-2. Concentrations were 1 μg/mL for GFs. Bound GF was detected with a specific antibody for each GF (n=4, mean±SEM). Statistical analyses were done using one-way ANOVA. *p<0.05, **p<0.01. Sequence of the peptides are described in Table 2.
(§3) ELISA tests were performed as described above. […] 1 μg/mL of BSA served as non-binding protein control. After blocking with 2% BSA PBS-0.05% Tween 20 (PBS-T) solution, 1 μg/mL of the recombinant human proteins (VEGF-A121, VEGF-A165, PlGF-1, PlGF-2, PDGF-BB or FGF-2) or 10 μg/mL of biotinylated heparin (Sigma-Aldrich) were added. Bound GF was detected with biotinylated antibodies for human VEGF, PlGF, PDGF-BB, or FGF-2 (R&D Systems). The antibodies were detected by streptavidin-HRP (R&D Systems).

[2] = molecular target: T9, placental growth factor (PlGF)-2 (human, UniProt P49763-3 19-170); test: ELISA; peptide coated at 10 µg/mL, 1 µg/mL PlGF-2 in solution, bound GF detected with antibody [panel PlGF-2]
T9 construct: mature; Purchased in mature form
T9 sequence (looked up): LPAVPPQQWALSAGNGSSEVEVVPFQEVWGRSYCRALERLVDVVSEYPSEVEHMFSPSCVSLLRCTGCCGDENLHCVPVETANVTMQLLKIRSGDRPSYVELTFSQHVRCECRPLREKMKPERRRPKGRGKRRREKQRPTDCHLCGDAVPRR
Method: as §2, §3

[3] = molecular target: T10, platelet-derived growth factor (PDGF)-BB (human, UniProt P01127 82-190); test: ELISA; peptide coated at 10 µg/mL, 1 µg/mL PDGF-BB in solution, bound GF detected with antibody [panel PDGF-BB]
T10 construct: mature; Purchased in mature form
Method: as §2, §3

[4] = molecular target: T11, vascular endothelial growth factor (VEGF)-A165 (human, UniProt P15692-4 27-191); test: ELISA; peptide coated at 10 µg/mL, 1 µg/mL VEGF-A165 in solution, bound GF detected with antibody [panel VEGF-A165]
T11 construct: mature; Purchased in mature form, not glycosylated
Method: as §2, §3

T10 sequence (P01127 82-190): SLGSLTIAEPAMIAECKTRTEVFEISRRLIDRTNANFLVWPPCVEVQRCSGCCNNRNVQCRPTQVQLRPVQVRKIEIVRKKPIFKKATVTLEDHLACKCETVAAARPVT
T8 sequence (P09038 143-288): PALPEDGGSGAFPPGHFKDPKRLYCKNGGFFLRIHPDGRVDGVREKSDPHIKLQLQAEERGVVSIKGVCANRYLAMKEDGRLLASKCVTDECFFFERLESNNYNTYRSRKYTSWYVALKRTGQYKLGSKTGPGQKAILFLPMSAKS
T11 sequence (P15692 other isoform, or with tags, fused parts or gaps limits assumed): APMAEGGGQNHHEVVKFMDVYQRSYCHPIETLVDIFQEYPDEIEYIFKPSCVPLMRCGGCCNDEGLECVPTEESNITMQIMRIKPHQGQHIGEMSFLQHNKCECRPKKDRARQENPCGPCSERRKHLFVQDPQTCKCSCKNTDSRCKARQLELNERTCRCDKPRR

B1: neurotrophin (NT)-3 (ligand, UniProt P20783 139-257, looked up)
chain: YAEHKSHRGEYSVCDSESLWVTDKSSAIDIRGHQVTVLGEIKTGNSPVKQYFYETRCKEARPVKNGCRGIDDKHWNSQCKTSQTYVRALTSENNKLVGWRWIRIDTSCVCALSRKIGRT
notes: mature; Purchased in mature form
B1: binds (laminin-111); binds (laminin-211); binds (laminin-411). B1: binds (laminin-421); binds (laminin-511); binds (laminin-521). B1: binds (human plasma-derived vWF).

LVRAKLTDKFLGKRIGSKECNKDKG (Scrambled peptide) [α3 3043-3067 Scr5]: binds [1]; binds [2]; binds [3]. LVRAKLTDKFLGKRIGSKECNKDKG (Scrambled peptide) [α3 3043-3067 Scr5]: binds [4].

RLVKALKTDKFLGRIGSEKCNDKGK (Scrambled peptide) [α3 3043-3067 Scr1]: binds [1]; binds [2]; binds [3]. RLVKALKTDKFLGRIGSEKCNDKGK (Scrambled peptide) [α3 3043-3067 Scr1]: binds [4].

B2: fibroblast growth factor (FGF)-18 (ligand, UniProt O76093 28-207, looked up)
chain: EENVDFRIHVENQTRARDDVSRKQLRLYQLYSRTSGKHIQVLGRRISARGEDGDKYAQLLVETDTFGSQVRIKGKETEFYLCMNRKGKLVGKPDGTSKECVFIEKVLENNYTALMSAKYSGWYVGFTKKGRPRKGPKTRENQQDVHFMKRYPKGQPELQKPFKYTTVTKRSRRIRPTHPA
notes: as for B1
B2: binds (laminin-111); binds (laminin-211); binds (laminin-411). B2: binds (laminin-421); binds (laminin-511); binds (laminin-521). B2: binds (human plasma-derived vWF).

B3: bone morphogenetic protein (BMP)-3 (ligand, UniProt P12645 363-472, looked up)
chain: QWIEPRNCARRYLKVDFADIGWSEWIISPKSFDAYYCSGACQFPMPKSLKPSNHATIQSIVRAVGVVPGIPEPCCVPEKMSSLSILFFDENKNVVLKVYPNMTVESCACR
notes: as for B1
B3: binds (laminin-111); binds (laminin-211); binds (laminin-411). B3: binds (laminin-421); binds (laminin-511); binds (laminin-521).

RKTDALELVFLKKGGIGSKKCNDKR (Scrambled peptide) [α3 3043-3067 Scr2]: binds [1]; binds [2]; binds [3]. RKTDALELVFLKKGGIGSKKCNDKR (Scrambled peptide) [α3 3043-3067 Scr2]: binds [4].

B4: fibroblast growth factor (FGF)-10 (ligand, UniProt O15520 38-208, looked up)
chain: QALGQDMVSPEATNSSSSSFSSPSSAGRHVRSYNHLQGDVRWRKLFSFTKYFLKIEKNGKVSGTKKENCPYSILEITSVEIGVVAVKAINSNYYLAMNKKGKLYGSKEFNNDCKLKERIEENGYNTYASFNWQHNGRQMYVALNGKGAPRRGQKTRRKNTSAHFLPMVVHS
notes: as for B1
B4: binds (laminin-111); binds (laminin-211); binds (laminin-411). B4: binds (laminin-421); binds (laminin-511); binds (laminin-521).

ALLLGIGRDFNKKKRKKKSEVTDGC (Scrambled peptide) [α3 3043-3067 Scr6]: binds [1]; binds [2]; binds [3]. ALLLGIGRDFNKKKRKKKSEVTDGC (Scrambled peptide) [α3 3043-3067 Scr6]: binds [4].

CRKKKRKKKALLLGIGDFNSEVTDG (Scrambled peptide) [α3 3043-3067 Scr3]: binds [1]; binds [2]; binds [3]. CRKKKRKKKALLLGIGDFNSEVTDG (Scrambled peptide) [α3 3043-3067 Scr3]: binds [4].

B5: fibroblast growth factor (FGF)-7 (ligand, UniProt P21781 32-194, looked up)
chain: CNDMTPEQMATNVNCSSPERHTRSYDYMEGGDIRVRRLFCRTQWYLRIDKRGKVKGTQEMKNNYNIMEIRTVAVGIVAIKGVESEFYLAMNKEGKLYAKKECNEDCNFKELILENHYNTYASAKWTHNGGEMFVALNQKGIPVRGKKTKKEQKTAHFLPMAIT
notes: as for B1
B5: binds (laminin-111); binds (laminin-211); binds (laminin-411). B5: binds (laminin-421); binds (laminin-511); binds (laminin-521). B5: binds (human plasma-derived vWF).

B6: epidermal growth factor (EGF) (ligand, UniProt P01133 971-1023, looked up)
chain: NSDSECPLSHDGYCLHDGVCMYIEALDKYACNCVVGYIGERCQYRDLKWWELR
notes: as for B1
B6: no binding (human plasma-derived vWF).

B7: bone morphogenetic protein (BMP)-2 (ligand, UniProt P12643 283-396, looked up)
chain: QAKHKQRKRLKSSCKRHPLYVDFSDVGWNDWIVAPPGYHAFYCHGECPFPLADHLNSTNHAIVQTLVNSVNSKIPKACCVPTELSAISMLYLDENEKVVLKNYQDMVVEGCGCR
notes: mature
B7: binds (laminin-111); binds (laminin-211); binds (laminin-411). B7: binds (laminin-421); binds (laminin-511); binds (laminin-521). B7: binds (human plasma-derived vWF).

B8: TGF-β3 (ligand, UniProt P10600 301-412, looked up)
chain: ALDTNYCFRNLEENCCVRPLYIDFRQDLGWKWVHEPKGYYANFCSGPCPYLRSADTTHSTVLGLYNTLNPEASASPCCVPQDLEPLTILYYVGRTPKVEQLSNMVVKSCKCS
notes: as for B1
B8: no binding (human plasma-derived vWF).

KKRKLVALTDFLGICGSENDGRKKK (Scrambled peptide) [α3 3043-3067 Scr4]: binds [1]; binds [2]; binds [3]. KKRKLVALTDFLGICGSENDGRKKK (Scrambled peptide) [α3 3043-3067 Scr4]: binds [4].

B9: brain-derived neurotrophic factor (BDNF) (ligand, UniProt P23560 129-247, looked up)
chain: HSDPARRGELSVCDSISEWVTAADKKTAVDMSGGTVTVLEKVPVSKGQLKQYFYETKCNPMGYTKEGCRGIDKRHWNSQCRTTQSYVRALTMDSKKRIGWRFIRIDTSCVCTLTIKRGR
notes: as for B1
B9: binds (laminin-111); binds (laminin-211); binds (laminin-411). B9: binds (laminin-421); binds (laminin-511); binds (laminin-521).

B10: C-X-C motif ligand (CXCL)-11 (ligand, UniProt O14625 22-94, looked up)
chain: FPMFKRGRCLCIGPGVKAVKVADIEKASIMYPSNNCDKIEVIITLKENKGQRCLNPKSKQARLIIKKVERKNF
notes: as for B1
B10: no binding (tested: A450 0.1) (laminin-111); no binding (tested: A450 0.1) (laminin-211); no binding (tested: A450 0.1) (laminin-411). B10: no binding (tested: A450 0.1) (laminin-421); no binding (tested: A450 0.1) (laminin-511); no binding (tested: A450 0.1) (laminin-521). B10: binds (human plasma-derived vWF).
